From patent US20250270343A1

Target: unidentified GPNMB ligand(s) on the surface of SVEC4-10 cells
Assay: flow cytometry, soluble moGPNMB-Fc on SVEC4-10 cells, PE anti-IgG Fc secondary; thin-line histogram shifted right with a tail to about 10^4, thick-line control histogram near 0

B1: soluble mouse GPNMB-Fc polypeptide (Fc of human IgG1 or mouse IgG2A, not specified for the assay) (Fc fusion, UniProt Q99P91 23-502, looked up, not shown: a dimerising Fc or GST)
chain: KRFRDVLGHEQYPDHMREHNQLRGWSSDENEWDEHLYPVWRRGDGRWKDSWEGGRVQAVLTSDSPALVGSNITFVVNLVFPRCQKEDANGNIVYEKNCRNDLGLTSDLHVYNWTAGADDGDWEDGTSRSQHLRFPDRRPFPRPHGWKKWSFVYVFHTLGQYFQKLGRCSARVSINTVNLTAGPQVMEVTVFRRYGRAYIPISKVKDVYVITDQIPVFVTMSQKNDRNLSDEIFLRDLPIVFDVLIHDPSHFLNDSAISYKWNFGDNTGLFVSNNHTLNHTYVLNGTFNLNLTVQTAVPGPCPPPSPSTPPPPSTPPSPPPSPLPTLSTPSPSLMPTGYKSMELSDISNENCRINRYGYFRATITIVEGILEVSIMQIADVPMPTPQPANSLMDFTVTCKGATPMEACTIISDPTCQIAQNRVCSPVAVDGLCLLSVRRAFNGSGTYCVNFTLGDDASLALTSTLISIPGKDPDSPLRAVN
- PE-A subset (share of cells in the drawn gate, unit not given): 70.1
